The supplement of paper PMC12764529
± gives the half width of the 95% confidence interval.

Experiments:
[1] = folding stability dG unfold from chymotrypsin proteolysis; higher = more stable
In short: (§1)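 Designed mini-proteins (under 80 residues, no cysteine) in a PA-tagged cDNA display construct were digested with trypsin and chymotrypsin. Each protease was used at 11 concentrations (threefold dilutions) plus a no-protease condition, followed by sequencing. K50 was inferred by Bayesian fitting of sequencing counts, and unfolding free energy was derived against a sequence-predicted unfolded-state K50 and a shared folded-state K50, per protease or combined. Only designs with AlphaFold2 dimer inter-PAE above 15 were kept.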

[2] = folding stability dG unfold from trypsin proteolysis; higher = more stable
In short: as §1

[3] = folding stability dG unfold (combined trypsin and chymotrypsin); higher = more stable
In short: as §1

Sequence	folding stability dG unfold [1]	folding stability dG unfold [2]	folding stability dG unfold [3]
SAGGKPKVYEFEITIEFKTKTKKDKNGKTYKVKKIKIKIKVKVVVDEENKKIYIFDENGKLIAEFELSAGGS [r16_92_TrROS_Hall]	4.01 ± 0.13 kcal/mol	3 ± 0.22 kcal/mol	3.72 ± 0.26 kcal/mol
SAGGKPPKTVTVTLTLPDGVKITIEYNEETGEVTVTIEVFKDGKLVKTITITAPSLDEALEALKKLLSAGGS [r16_55_TrROS_Hall]	4.19 ± 0.18 kcal/mol	3.25 ± 0.23 kcal/mol	3.87 ± 0.13 kcal/mol
SAGGKPPNLKIKIEVIPIPNGYWIITFRIKVPPNEPLKIRFPDFGREIEFPPGDEVTIMILIPPDDLSAGGS [r16_56_TrROS]	4.8 ± 0.2 kcal/mol	3.64 ± 0.2 kcal/mol	4.62 ± 0.35 kcal/mol
SAGGKQEIEIPIPYKNGMPFRIRIEWEEDPNKPRLRIPIWAPNMPASNFAEEIKKELPPDIKDVEIWPSAGG [r13_404_TrROS]	0.0456 ± 0.72 kcal/mol	0.685 ± 0.2 kcal/mol	0.0846 ± 0.64 kcal/mol
SAGGKSISFGKKAGKEKMKEAIKKGLKNIKIVVFKDGKPEVIEVKADDLDKVFDNIPEDSIVVFEPESAGGS [r16_636_TrMRF]	2.19 ± 0.038 kcal/mol	1.28 ± 0.06 kcal/mol	2.17 ± 0.17 kcal/mol
SAGGKTIVVPEKDVEKLLKELEKLGFKVTKVERKDGYVTVTIEVEKDGKLEKIEIRIYRPEDLDKPPSAGGS [r8_307_TrROS_Hall]	2.28 ± 0.06 kcal/mol	1.1 ± 0.072 kcal/mol	2.01 ± 0.15 kcal/mol
SAGGKTKTYTFVLEDPVKKGIPVLAKVTVTYEPDENGNEVAPANVVVYYPDGKPEVLKVDVSNITGTGSAGG [r13_787_TrMRF]	1.11 ± 0.053 kcal/mol	0.123 ± 0.13 kcal/mol	0.737 ± 0.06 kcal/mol
SAGGKTKVINVKVKSIEELLEKLAKLPNVKKVEVKEVNGKKEITIEVDGKKIKITKNKDGYYSIEIFPSAGG [r13_907_TrROS_Hall]	1.98 ± 0.34 kcal/mol	2.16 ± 0.12 kcal/mol	2.25 ± 0.37 kcal/mol
SAGGKTLVIKMKFKTKEEAEEAIKKLLEELGLPEGAKIEVTVERDENGELTVTITITVKDPEVLKALSAGGS [r8_85_TrROS_Hall]	2.66 ± 0.036 kcal/mol	2 ± 0.11 kcal/mol	2.48 ± 0.076 kcal/mol
SAGGKTLYVRIIIENKKTGKKEEKIIKIKNVKTLDELLEKAKKEAEKKGYKIKKIEVYDKKTGKKLKLSAGG [r13_771_TrROS_Hall]	1.28 ± 0.27 kcal/mol	1.79 ± 0.088 kcal/mol	1.73 ± 0.39 kcal/mol
SAGGKTTVLIITENPDGTPKAIPIPLDELDIEEIVELIKELVEEGRKLKVFVPADTPPELIKAIKEAASAGG [r13_251_TrMRF]	3.2 ± 0.067 kcal/mol	3.4 ± 0.087 kcal/mol	3.31 ± 0.056 kcal/mol
SAGGKTVEIKVKVKSLEELKAAIEALKKAGIKDVKVTKIELEKNEDGSLYARVTIEVEPAPEVVEEKESAGG [r13_174_TrROS_Hall]	3.08 ± 0.073 kcal/mol	2.78 ± 0.095 kcal/mol	3.15 ± 0.2 kcal/mol
SAGGKTVIIEGMSLEELLELIKNAKPGDTITITLKVKVEEYKYENGKLVEKKEFEKTLTLTLKIEEKESAGG [r13_632_TrROS_Hall]	4.29 ± 0.19 kcal/mol	2.57 ± 0.28 kcal/mol	4.1 ± 0.33 kcal/mol
SAGGKTVLVPVKSPEEAKIFIENFPESYDKVIVFNPETGTKAVFYIDPKTREVKEVKVEKFDLNDPNASAGG [r13_945_TrMRF]	1.22 ± 0.052 kcal/mol	0.913 ± 0.017 kcal/mol	1.12 ± 0.066 kcal/mol
SAGGKTVTIKVTRPDGKELTIEFEEKDGKVTVRVFDKDGKLVKEIEVDSLEEALKALEEAGYEVEVVPSAGG [r13_315_TrROS_Hall]	3.36 ± 0.15 kcal/mol	3.49 ± 0.22 kcal/mol	3.42 ± 0.2 kcal/mol
SAGGKTVTITVPEGMTEEEVKALAEKLIEEGFKEVTVTVTRTKTETLPNGKTKTVTETKTYVFKLPPSAGGS [r16_44_TrROS_Hall]	4.062 ± 0.036 kcal/mol	3.45 ± 0.092 kcal/mol	3.88 ± 0.088 kcal/mol
SAGGKTYTIVLPIPPNVPLEEYIKKIEKLLKKLKKNVPISFNKQKKLPNGYYLINFTLTDNKVTGFGSAGGS [r8_7_TrMRF]	1.91 ± 0.12 kcal/mol	1.06 ± 0.059 kcal/mol	1.72 ± 0.18 kcal/mol
SAGGKVAAPAQPLASTKVERTTLPTGTTVTYVTVTSSAVPTPTTYTFSPGENPGDFAAATGLPVTLVSAGGS [r16_676_JUSTAS]	0.339 ± 0.083 kcal/mol	-0.488 ± 0.29 kcal/mol	0.126 ± 0.092 kcal/mol
SAGGKVEVETKAYFIPETGEVVLLTTVRVETDEEPSEEERENLPEGATRTETFTFVFVFPAKPGSLLSAGGS [r8_274_TrMRF]	3.52 ± 0.044 kcal/mol	2.46 ± 0.064 kcal/mol	3.19 ± 0.092 kcal/mol
SAGGKVKILKTEVFEEGDYLKIVDFVEVDSLEEIEELVKNGLENVEAEVRLLPDGRLLVVLVAEIPKESAGG [r13_506_TrMRF]	1.4 ± 0.026 kcal/mol	1.26 ± 0.031 kcal/mol	1.36 ± 0.04 kcal/mol
SAGGKVKVEIDPKTIKVTFYDEKGKKIGEIEIEVKPLPIVIENIPLEDIEALKEKFPDIPIIINPDNISAGG [r13_235_TrMRF]	1.73 ± 0.17 kcal/mol	2.47 ± 0.22 kcal/mol	1.83 ± 0.2 kcal/mol
SAGGKVLVFYAPSPELIEKWAKELGLKLKKVSKEGDKFVAEFELPSGEKVLVVADEEAFKKLGIDPEKISAG [r5_12_TrMRF]	4.09 ± 0.12 kcal/mol	2.93 ± 0.1 kcal/mol	3.74 ± 0.18 kcal/mol
SAGGKVVPILIEGELTAEEIKALIPPGELAVLYDLETGEVRVFSPEDLDKIPSDVPLRFLLLIFRPDSAGGS [r8_66_TrMRF]	4.31 ± 0.058 kcal/mol	2.93 ± 0.051 kcal/mol	3.92 ± 0.11 kcal/mol
SAGGKVVPKNVKLPVTKEAEELAKKLAPELGYKKAEVKVKSAVEGYVKVEIYFPETGKKVEITVPVGSAGGS [r16_281_TrMRF]	1.04 ± 0.025 kcal/mol	-0.0217 ± 0.086 kcal/mol	0.739 ± 0.07 kcal/mol
SAGGKWIMFMIPPGEEIEDPNGLEIRYDPEEGEFEIENNKRPVKIPVHPHPDGWYMITIEIPPGVEVSAGGS [r16_245_TrROS]	1.12 ± 0.23 kcal/mol	1.5 ± 0.074 kcal/mol	1.55 ± 0.22 kcal/mol
SAGGKWRTIQLPGISIQLNPKDGTITVMMPSDMMEELKEAFGPGFEIDEIHHHPDGWMQMTIPIKPPSAGGS [r8_415_TrROS]	1.75 ± 0.11 kcal/mol	1.18 ± 0.035 kcal/mol	1.57 ± 0.15 kcal/mol
